Assay results: publication PMC8565817
pKd: −log10 of the molar value.

Experiments:
[1] = target: Bemarituzumab (human); test: SPR
[2] = target: FPA144-F (the fucosylated version of bemarituzumab) (human); test: SPR

human Fc gamma receptor IIIa (V158)
pKd [1]: 8.04
pKd [2]: 6.68
